Assay [1] addresses T1, Trimeric SARS-CoV-2 S-protein (SARS-CoV-2 (P0DTC2 reference)); strain …, UniProt P0DTC2, biotin (site-specific, BirA, on the AviTag)). Kind of assay: BLI. Background: In BLI a coated tip is dipped into the sample, and binding shifts an interference pattern.
Assay [2] deals with T1, Trimeric SARS-CoV-2 S-protein. Kind of assay: ELISA. Background: An ELISA detects its analyte on a solid surface through an enzyme-linked reagent.

B1: IgG 15046 (antibody, V domains shown)
VH: EVQLVESGGGLVQPGGSLRLSCAASGFDFGSYAMHWVRQAPGKGLEWVAGIYASGGYTDYADSVKGRFTISADTSKNTAYLQMNSLRAEDTAVYYCARGWSYYWGFDYWGQGTLVTVSS
VL: DIQMTQSPSSLSASVGDRVTITCRASQSVSSAVAWYQQKPGKAPKLLIYSASSLYSGVPSRFSGSRSGTDFTLTISSLQPEDFATYYCQQYDYGLFTFGQGTKVEIK
Molecule B1 registered a Kd in assay [1] of 2.3 ± 0.6 nM. For the same molecule, a half-maximal effect in assay [2] (EC50) was put at 1.3 ± 0.3 nM.

B2: IgG 15036 (antibody, V domains shown)
VH: EVQLVESGGGLVQPGGSLRLSCAASGFDFTAYDIHWVRQAPGKGLEWVAGISASGGYTAYADSVKGRFTISADTSKNTAYLQMNSLRAEDTAVYYCARDGFHSYALDYWGQGTLVTVSS
VL: DIQMTQSPSSLSASVGDRVTITCRASQSVSSAVAWYQQKPGKAPKLLIYSASSLYSGVPSRFSGSRSGTDFTLTISSLQPEDFATYYCQQWYSLFTFGQGTKVEIK
The molecule B2 showed a Kd in assay [1] of 0.1 ± 0.1 nM. This molecule came in with an EC50 in assay [2] of 0.5 ± 0.1 nM.

A word on the Kd: it is the free concentration of one partner at which half of the binding sites on the other are occupied at equilibrium, for simple one-to-one binding. The EC50 is the concentration giving half of the maximal effect. A lower EC50 goes with an effect from little substance.

Source of the values: article PMC8028696 (Journal of Molecular Biology, 2021).
